Measurements as given in patent US20040260068A1 (published 2004).
Substitutions are numbered along the chain they refer to. Names and notes keep the numbering of the source. Values joined by “and” are separate entries in the source; they are usually repeats but may differ in a detail not shown here. Equal entries are not always repeated.

Key:
chicken lysozyme = target: T1, chicken lysozyme (chicken, UniProt P00698 19-147); assay: ELISA on coated protein
T1 construct: Control antigen; also called hen egg lysozyme
T1 sequence (P00698 19-147): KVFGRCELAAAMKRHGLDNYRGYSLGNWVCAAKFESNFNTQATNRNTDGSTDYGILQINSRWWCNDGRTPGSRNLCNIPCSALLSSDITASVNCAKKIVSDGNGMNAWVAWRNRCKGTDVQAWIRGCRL
Description: (§1) For binding to various proteins, ELISA plates were coated with chicken lysozyme (Sigma), human globin (Sigma), bovine albumin (Sigma), and concanavalin A (Pharmacia) as well as human and mouse IL-12 (R&D) at 0.1 μg/ml in 0.2 M sodium carbonate buffer (pH 9.4) and blocked with SuperBlock buffer (Pierce).

bovine albumin = target: T2, bovine albumin (bovine, UniProt P02769 25-607); assay: ELISA on coated protein
T2 construct: Control antigen
T2 sequence (P02769 25-607 limits assumed): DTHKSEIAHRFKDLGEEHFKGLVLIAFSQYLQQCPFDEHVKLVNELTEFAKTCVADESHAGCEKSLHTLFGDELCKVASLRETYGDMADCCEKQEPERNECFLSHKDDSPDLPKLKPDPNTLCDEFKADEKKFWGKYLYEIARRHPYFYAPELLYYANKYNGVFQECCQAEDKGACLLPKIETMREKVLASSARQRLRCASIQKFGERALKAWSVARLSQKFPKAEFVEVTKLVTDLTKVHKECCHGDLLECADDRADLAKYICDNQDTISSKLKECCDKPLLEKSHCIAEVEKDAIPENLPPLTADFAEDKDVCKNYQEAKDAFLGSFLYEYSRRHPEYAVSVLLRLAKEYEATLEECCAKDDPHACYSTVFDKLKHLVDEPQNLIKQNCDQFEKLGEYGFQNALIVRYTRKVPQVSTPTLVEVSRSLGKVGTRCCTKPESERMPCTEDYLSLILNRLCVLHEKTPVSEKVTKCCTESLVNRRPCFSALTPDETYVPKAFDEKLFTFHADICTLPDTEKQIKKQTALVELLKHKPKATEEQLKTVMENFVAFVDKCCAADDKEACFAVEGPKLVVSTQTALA
Description: as §1

concanavalin A = target: T3, concanavalin A (UniProt P02866 30-281); assay: ELISA on coated protein
T3 construct: Control antigen
Description: as §1

human IL-12 [1] = target: T4, human IL-12 (human, UniProt P29459 23-219; P29460 23-328); assay: competition ELISA on coated human IL-12
T4 construct: also called human IL-12 p70 heterodimer; IL-12 p75
T4 sequence (looked up) 1: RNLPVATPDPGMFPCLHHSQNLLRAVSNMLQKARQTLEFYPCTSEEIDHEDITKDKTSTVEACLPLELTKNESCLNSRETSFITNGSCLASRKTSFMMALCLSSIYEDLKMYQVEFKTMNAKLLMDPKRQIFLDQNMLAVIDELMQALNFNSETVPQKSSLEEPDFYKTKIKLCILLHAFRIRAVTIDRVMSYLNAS
T4 sequence (looked up) 2: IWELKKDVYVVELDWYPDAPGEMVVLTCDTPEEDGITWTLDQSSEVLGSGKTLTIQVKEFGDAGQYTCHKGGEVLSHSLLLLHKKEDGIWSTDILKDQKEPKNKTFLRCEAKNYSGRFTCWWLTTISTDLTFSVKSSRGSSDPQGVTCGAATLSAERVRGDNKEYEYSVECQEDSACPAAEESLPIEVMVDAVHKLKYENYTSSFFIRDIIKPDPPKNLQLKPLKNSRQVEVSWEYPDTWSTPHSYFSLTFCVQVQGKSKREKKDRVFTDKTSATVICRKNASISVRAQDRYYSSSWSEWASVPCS
Description: (§2) ELISA plates were incubated at room temperature for 2 hr. After washing the wells with Washing Buffer, 0.5 μg/ml HRP-conjugated streptavidin (Pierce) was added to each well. Color development was performed with TMB substrate (Kirkegaard & Perry Laboratories).

mouse IL-12 [2] = target: T5, mouse IL-12 (mouse, UniProt P43431 23-215; P43432 23-335); assay: competition ELISA on coated mouse IL-12
T5 sequence (looked up) 1: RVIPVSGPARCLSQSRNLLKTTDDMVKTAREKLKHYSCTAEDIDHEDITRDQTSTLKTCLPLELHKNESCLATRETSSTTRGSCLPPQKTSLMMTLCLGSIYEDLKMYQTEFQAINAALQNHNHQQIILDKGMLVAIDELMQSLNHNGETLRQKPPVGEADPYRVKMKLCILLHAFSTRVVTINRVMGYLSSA
T5 sequence (looked up) 2: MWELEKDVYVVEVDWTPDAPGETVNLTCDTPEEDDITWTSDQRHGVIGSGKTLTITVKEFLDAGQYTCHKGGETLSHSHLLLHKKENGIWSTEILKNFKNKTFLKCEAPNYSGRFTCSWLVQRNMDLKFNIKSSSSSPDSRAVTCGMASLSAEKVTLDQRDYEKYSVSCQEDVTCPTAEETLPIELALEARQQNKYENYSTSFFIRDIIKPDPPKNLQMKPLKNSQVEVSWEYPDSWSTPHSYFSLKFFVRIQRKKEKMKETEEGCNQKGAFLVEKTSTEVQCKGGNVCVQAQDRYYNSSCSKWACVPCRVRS
Description: (§3) MaxiSorp plates were coated with 100 μl of 0.1 μg/ml human or mouse IL-12 (R&D) and blocked with Superblock blocking buffer. […] As a background control, 100 μl of ELISA Buffer was used. ELISA plates were incubated at room temperature for 2 hr. After washing the wells with Washing Buffer (PBS containing 0.1 % Tween 20), 100 μl of 1 μg/ml HRP-conjugated streptavidin (Pierce) in ELISA buffer was added to each well. ELISA plates were incubated at room temperature for 30 min and washed with Washing Buffer. For color development, 100 μI/well of ABTS substrate was added. Color development was stopped by adding 100 μl/well of 2% oxalic acid. Absorbance was read at 415 nm.

mouse IL-12 [3] = target: T5, mouse IL-12; assay: competitive binding assay (competition ELISA)
Description: as §3

human IL-12 [4] = target: T4, human IL-12; assay: competition ELISA on coated human IL-12; competitor of biotinylated humanized B1
Description: as §3

mouse IL-12 [5] = target: T5, mouse IL-12; assay: competition ELISA on coated mouse IL-12; competitor of biotinylated humanized B1
Description: as §3

human IL-12 [6] = target: T4, human IL-12; assay: competition ELISA on coated human IL-12; competitor of biotinylated ChDD2
Description: as §2

mouse IL-12 [7] = target: T5, mouse IL-12; assay: competition ELISA on coated mouse IL-12; competitor of biotinylated ChDD2
Description: as §2, with “MaxiSorp plates (Nalge Nunc, Rochester N.Y.) were coated with 0.1 μg/ml human or mouse IL-12. […] ELISA” for “ELISA”

B1: humanized B1 IgG1/λ monoclonal antibody (antibody, V domains shown)
VH: EVQLVESGGGLVQPGGSLRLSCAASGFTFSSYSMLWVRQAPGKGLEYVAEITNTGRTRRYGAAVKGRATISRDNAKNTVYLQMNSLRAEDTAVYYCARSSVYSCSYGWCAGNINAWGQGTLVTVSS
VL: SSELTQPPSVSVALGQTVRITCSGGYSGYYGWYQQKPGQAPVTVIYDNTRRPSDIPSRFSGSKSGSTATLTITGVQAEDEADYYCGTWDSSRVGIFGGGTKLTVL
notes: made in Sp2/0; also called HuB1
What does the source list for B1?
binding result (chicken lysozyme): no binding (tested: 0.01 µg/ml antibody); binding result (bovine albumin): no binding (tested: 0.01 µg/ml antibody); binding result (concanavalin A): no binding (tested: 0.01 µg/ml antibody); fold better binding than chimeric B1 (human IL-12 [1]): ~1.4 fold; fold decrease in relative binding against chimeric B1 (fold) (mouse IL-12 [2]): ~2.1 fold; fold better affinity than chimeric B1 (mouse IL-12 [3]): ~2 fold; IC50 (human IL-12 [4]): 5.8 µg/mL; IC50 (mouse IL-12 [5]): 6.2 µg/mL

B2: chimeric B1 IgG1/λ antibody (chicken-human chimeric anti-IL-12 antibody B1) (antibody, V domains shown)
VH: AVTLDESGGGLQTPGGALSLVCKASGFTFSSYSMLWVRQAPGKGLEYVAEITNTGRTRRYGAAVKGRATISRDNGQSTVRLQLNNLRAEDTGTYYCARSSVYSCSYGWCAGNINAWGHGTEVIVSS
VL: ALTQPASVSANLGGTVKITCSGGYSGYYGWYQQKSPGSAPVTVIYDNTRRPSDIPSRFSGSKSGSTATLTITGVQADDEAVYFCGTWDSSRVGIFGAGTTLTVL
notes: made in Sp2/0; also called ChB1
What does the source list for B2?
binding result (chicken lysozyme): no binding (tested: 0.01 µg/ml antibody); binding result (bovine albumin): no binding (tested: 0.01 µg/ml antibody); binding result (concanavalin A): no binding (tested: 0.01 µg/ml antibody); IC50 (human IL-12 [4]): 8.3 µg/mL; IC50 (mouse IL-12 [5]): 13 µg/mL

B3: chicken-human chimeric anti-IL-12 antibody DD2 (antibody, V domains shown)
VH: AVTLDESGGGLQTPGGGLSLVCKASGFDFSNYQLQWVRQAPGKGLEWVGGIGSSGSSTYYGAAVKGRATISRDNGQSTVRLQLNNLRAEDTGTYYCTRGVSPYSCWYAGRTSYTCHAYTAGSIDAWGHGTEVIVSS
VL: ALTQPASVSANPGETVKITCPGGGIYAGRYYGYGWFQQKSPGSAPVTVIYSNDKRPSDIPSRFSGSASGSTATLTITGVQADDEAVYFCGSHDSNVGVFGAGTTLTVL
notes: made in Sp2/0; also called ChDD2; chimeric DD2
Which results are given for B3?
IC50 (human IL-12 [6]): 4 µg/mL; IC50 (mouse IL-12 [7]): 2.4 µg/mL

B4: humanized DD2 IgG1/λ monoclonal antibody (antibody, V domains shown)
VH: EVQLVESGGGLVQPGGSLRLSCAASGFDFSNYQLQWVRQAPGKGLEWVGGIGSSGSSTYYGAAVKGRATISRDNAKNSVYLQMNSLRAEDTAVYYCTRGVSPYSCWYAGRTSYTCHAYTAGSIDAWGQGTLVTVSS
VL: SSELTQDPAVSVALGQTVRITCPGGGIYAGRYYGYGWFQQKPGQAPVTVIYSNDKRPSDIPSRFSGSASGSTASLTITGAQAEDEADYYCGSHDSNVGVFGGGTKLTVL
notes: also called HuDD2; wild-type HuDD2
B4 was tested. Which IC50 (human IL-12 [6]) did it give?
The IC50 was 4.2 µg/mL and 3.5 µg/mL.

And the IC50 (mouse IL-12 [7])?
Its IC50 is 2.4 µg/mL.

B5: HuDD2 VH A67F mutant (antibody, IgG1, name in Kabat numbering, V domains shown)
VH: B4 VH with A68F
VL: B4 VL
notes: IgG1/λ as HuDD2
For B5, which IC50 (human IL-12 [6]) is on record?
Its IC50 is 2.1 µg/mL.

B6: HuDD2 VH T93A mutant (antibody, IgG1, name in Kabat numbering, V domains shown)
VH: B4 VH with T97A
VL: B4 VL
notes: IgG1/λ as HuDD2; Kabat numbering
For B6, which IC50 (human IL-12 [6]) is on record?
Its IC50 is 3.3 µg/mL.

B7: HuDD2 VH V78L mutant (antibody, IgG1, name in Kabat numbering, V domains shown)
VH: B4 VH with V79L
VL: B4 VL
notes: IgG1/λ as HuDD2; H78 (Kabat) is the position named as the one tested; also called V79L
For B7, which “fold reduction of binding affinity against wild-type HuDD2” value (human IL-12 [1]) is on record?
The value was 2 fold.

And the IC50 (human IL-12 [6])?
Its IC50 is 7 µg/mL.

B8: HuDD2 Vλ A66S mutant (antibody, IgG1, V domains shown)
VH: B4 VH
VL: B4 VL with A68S
notes: as for B6
With B8 as the binder, how does the IC50 (human IL-12 [6]) read?
Its IC50 is 3.4 µg/mL.

B9: HuDD2 Vλ S69N mutant (antibody, IgG1, V domains shown)
VH: B4 VH
VL: B4 VL with S71N
notes: as for B6
B9 was tested. Which IC50 (human IL-12 [6]) did it give?
The IC50 was 4.3 µg/mL.

B10: HuDD2 Vλ T46L mutant (antibody, IgG1, V domains shown)
VH: B4 VH
VL: B4 VL with T48L
notes: as for B6
Which “fold reduction of binding affinity against wild-type HuDD2” value (human IL-12 [1]) does the source give for B10 here?
The value was 4.6 fold.

And the IC50 (human IL-12 [6])?
The IC50 was 16.1 µg/mL.
